The values below come from US20110086089A1, “USE OF P27KIP1 FOR THE PREVENTION AND TREATMENT OF HEART FAILURE” (UNIVERSITY HEALTH NETWORK, priority 2008, published 2011).

Marks after values point to notes of the source that are not given here.

For assay [1], the system named is WT mice. Briefly: Chronic Ang II infusion for 14 days with daily TAT.protein injection, WT mice. It counts as in vivo. The conditions noted are these: for FS / LVEDD / LVEF / LVESD / PWD: WT, echocardiography at 14 days. From the text: FIG. 5 is a series of graphs, blots and cell stainings showing CK2-alpha-prime is important for Ang II action in vivo. […] Transduction of recombinant active CK2-alpha-prime evokes cardiac hypertrophy in the absence of Ang II. (A) Heart-weight corrected for body-weight (left panel) and Masson-stain of myocardial cross sections (right panel). Mean±s.e.m., n=6-8. #P<0.01 vs sham saline. *P<0.01 vs sham saline. Scale bar, 2 mm. (B) Cell size analysis of adult cardiac myocytes isolated from 8-weeks-old mice. One hundred cells from three different mice were analyzed per group. Mean±s.e.m. #P<0.01 vs sham saline. *P<0.01 vs sham saline. **P<0.01 vs Ang II. (c) Determination of ANF/BNP mRNA levels by qRT-PCR. Mean±s.e.m., n=6-8. *P<0.05 vs sham saline. **P<0.05 vs Ang II. #P<0.05 vs sham saline. (D) Visualization of ectopic TAT-conjugated p27deltaPi by indirect immunofluorescence microscopy employing anti-His tag antibodies. Scale bar, 200 μm. (E) Left ventricular extracts (2-3 mg) were subjected to anti-CK2-alpha-prime immunocomplex kinase assays employing histone H1 substrate. Aliquots of kinase reactions were subjected to immunoblotting using antibodies as indicated on the left (top and middle panel). Levels of endogenously expressed or transduced proteins in total left ventricular heart tissue samples (60 μg) were analyzed by immunoblotting (bottom panel). Experiments to (E) were done twice with similar results.
To define whether CK2-alpha-prime -directed p27 turnover plays a role in vivo, the inventors chronically infused Ang II^72 and intraperitoneally injected recombinant TAT-conjugated CK2-alpha-prime and p27 variants in WT and p27^−/− mice (FIG. 9). […] These mice had normal LVEDD and LVESD when compared to Ang II-infused littermates (Table 3). […] CK2-alpha-prime activity and p27 destabilization were similar to their non-transduced Ang II-treated siblings (FIG. 5E).
(§1) Spontaneously beating cardiomyocytes from heart ventricles of neonatal rats were cultured and subjected to treatment with angiotensin II (Ang II). DMAT (2-dimethylamino-4,5,6,7-tetrabromo-1H-benzimidazol), DMSO, lactacystin and LLM were obtained from Calbiochem. Ang II was purchased from Sigma. Animal usage was in accordance with approved institutional animal care guidelines. Age-matched male WI C57BL/6 and p27^−/− mice were used in this study. For results shown in FIGS. 1 to 9: Ang II was chronically infused subcutaneously by osmotic pumps (model 2000, Alzet) at a dose of 1.4 μg/kg per minute for 14 days. TAT.proteins (10 mg/kg) were injected intraperitoneally once daily for 14 days. For results shown in FIGS. 10 to 12: Ang II was chronically infused subcutaneously by osmotic pumps (model 2000, Alzet) at a dose of 0.7 μg/kg per minute for 16 days. TAT.proteins (20 mg/kg) were injected intraperitoneally once daily for 8 days starting at day 8. Thoracic aortic banding (TAB) and pressure gradient measurements were performed as described^39.

Assay [2] concerns p27 KO mice. Briefly: Chronic Ang II infusion for 14 days with daily TAT.protein injection, p27 KO mice. It counts as in vivo. The conditions noted are these: p27 KO, echocardiography at 14 days. As to the method: (A) Heart-weight corrected for body-weight (left panel) and Masson-stain of myocardial cross sections (right panel). Mean±s.e.m., n=6-8. *P<0.01 vs sham saline. **P<0.01 vs Ang II. Scale bar, 2 mm. (B) Cell size analysis of adult cardiac myocytes isolated from 8-weeks-old mice. One hundred cells from three different mice were analyzed per group. Mean±s.e.m. *P<0.01 vs sham saline. **P<0.01 vs Ang II. (C) Determination of ANF/BNP mRNA levels by qRT-PCR. Mean±s.e.m., n=6-8. *P<0.01 vs sham saline. **P<0.01 vs Ang II. (D) CK2-alpha-prime-dependent kinase activity determined in whole left ventricular tissue samples. One typical result of two independent experiments is shown. (E, F) Ang II action induces apoptosis in p27^−/− mice. (E) Quantification of apoptotic cardiac myocytes (white arrowheads) by in situ TUNEL and GATA4 immunofluorescence histochemistry of left ventricular specimen. Mean±s.e.m., n=4. *P<0.01 vs sham saline. **P<0.05 vs sham saline. #P<0.01. (F) Determination of caspase 3 activity in total left ventricular heart tissue samples. Mean±s.e.m., n=4. *P<0.05 vs sham saline. #P<0.01. (G) Model for CK2-alpha-prime-dependent regulation of cardiac hypertrophy through phosphorylation of p27. Hypertrophic signals stimulate CK2-alpha-prime kinase that phosphorylates p27 at S83 and T187. Phosphorylation of p27 impairs its ability to bind to and inhibit […] activity. Subsequently, p27 is proteasomally degraded allowing hypertrophic growth to proceed.
Next, the inventors examined the effect of transduced proteins on cardiac hypertrophy in p27^−/− mice. Elimination of p27 gene function in these animals completely abrogated the ability of kd.CK2-alpha-prime to block cardiac hypertrophy (FIG. 6A-D). In contrast, hypertrophic responses to Ang II were abolished by p27deltaPi injections. Thus, reconstitution of p27 protein abundance in the myocardium of p27^−/− mice was accompanied by inhibition of Ang II action. Moreover, the inventors observed a marked increase in the number of TUNEL-positive cardiomyocyte nuclei in Ang II-infused p27^−/− mice (FIG. 6E,F) as compared to the WT controls. […] This was in direct contrast to the effect seen by ectopic kd.CK2-alpha-prime consistent with the inventors' previous work showing that CK2 is cardioprotective^73,74.
as §1

Assay [3] has as its system p27 phosphorylation at S83 and T187 in cardiomyocytes. The assay is described as follows: p27 phosphorylation at S83 and T187 in Ang II-treated cardiomyocytes (Western blot). The class given is cell-based, rat. The conditions noted are these: Ang II 4 h; lentiviruses 72 h; DMAT 20 μM pre-incubated 30 min; TAT-conjugated CK2-alpha-prime 2.5 μg/ml 1 h. How it is done: FIG. 2 is a series of graphs and blots showing Ang II triggers CK2-alpha-prime-dependent phosphorylation of p27 on S83 and T187 in cardiomyocytes. (A) p27 is a substrate of CK2-alpha-prime. […] In vitro kinase assays employing recombinant wt.p27 (1 μg) or phosphorylation site mutants of p27 as substrates were incubated with recombinant CK2-alpha-prime/beta (200 ng). Aliquots of the reaction mixtures were resolved on SDS-PAGE, electrotransferred to nitrocellulose membranes, and the amount of incorporated radioactive [^32P}-label into p27 was quantified with a PhosphorImager and ImageJ software. Individual membranes were probed with anti-CK2-alpha-prime, anti-p27 (input), or phosphorylation site specific antibodies to p27. […] Samples were resolved on SDS-PAGE, transferred to nitrocellulose-membranes, and the amount of incorporated radioactive label into histones was quantified with a PhosphorImager and ImageJ. The input amount of each CK2-alpha-prime and p27 protein used in the kinase reaction mixtures was monitored by immunoblot analysis employing anti-His. […] Biochemically fractionated extracts corresponding to 4×10^5 cells per lane were analyzed by immunoblotting employing antibodies as indicated on the left. […]

Setting [4] is: Ang infusion 1.4 μg/kg per minute 14 days, TAT.protein 10 mg/kg i.p. once daily.
[5] abbreviates: saline infusion, TAT.protein 10 mg/kg i.p. once daily 14 days.
Setting [6] is: saline infusion, TAT.protein 10 mg/kg i.p. once daily 14 days, 8-weeks of age.

B1: p27ΔC: TAT-conjugated p27 deficient in binding to CK2-alpha-prime (p27.1-86), serving as negative control (protein)
chain: MSNVRVSNGSPSLERMDARQADHPKPSACRNLFGPVDHEELTRDLEKHCRDMEEASQRKWNFDFQNHKPLEGKYEWQEVEKGSLPE
modifications: left off: small tags and cut ends
Turning to B1, the “cardiac hypertrophy to Ang II (heart/body weight ratio, myocyte area, ANF/BNP mRNA)” value in assay [1] (Ang II-treated WT mice, TAT.proteins 10 mg/kg i.p. once daily 14 days) is listed as “No anti-hypertrophic effect”. Also, in assay [1] (setting [4]), the FS is 54 ± 3.2%, the LVEDD is 4.5 ± 0.2 mm, the LVEF worked out at 81 ± 3.5% and the LVESD stood at 2.3 ± 0.1 mm. Besides, in assay [1] (setting [4]), the PWD was 1.2 ± 0.2 mm. In assay [1] (setting [5]), this molecule displayed an LVEDD of 3.6 ± 0.2 mm, an LVEF of 69 ± 2.1%, an LVESD of 1.4 ± 0.1 mm and a PWD of 0.7 ± 0.1 mm. In assay [1] (setting [6]), this molecule showed an FS of 41 ± 1.8%. Also, in assay [2] (setting [4]), the FS came to 56 ± 3.9%, the LVEDD was 4.6 ± 0.2 mm, the LVEF turned out to be 82 ± 3.8% and the LVESD was determined as 2.3 ± 0.2 mm. The PWD in assay [2] (setting [4]) turned out to be 1.1 ± 0.1 mm. In assay [2] (setting [5]), the FS is on record as 42 ± 2.4%, the LVEDD was found to be 3.7 ± 0.2 mm, the LVEF is recorded as 73 ± 2.6% and the LVESD is recorded as 1.3 ± 0.1 mm. In assay [2] (setting [5]), this molecule gave a PWD of 0.6 ± 0.2 mm.

B2: CK2-α′: recombinant active TAT-conjugated CK2-alpha-prime protein with NES of HIV-1 Rev (protein)
chain: MPGPAAGSRARVYAEVNSLRSREYWDYEAHVPSWGNQDDYQLVRKLGRGKYSEVFEAINITNNERVVVKILKPVKKKKIKREVKILENLRGGTNIIKLIDTVKDPVSKTPALVFEYINNTDFKQLYQILTDFDIRFYMYELLKALDYCHSKGIMHRDVKPHNVMIDHQQKKLRLIDWGLAEFYHPAQEYNVRVASRYFKGPELLVDYQMYDYSLDMWSLGCMLASMIFRREPFFHGQDNYDQLVRIAKVLGTEELYGYLKKYHIDLDPHFNDILGQHSRKRWENFIHSENRHLVSPEALDLLDKLLRYDHQQRLTAKEAMEHPYFYPVVKEQSQPCADNAVLSSGLTAAR
modifications: left off: small tags and cut ends
Regarding B2, the “S83/T187 phosphorylation of p27 in cardiomyocytes” value in assay [3] was “rescued the detrimental impact of siCK2-alpha-prime on p27 phosphorylation”. The “cardiac hypertrophy in the absence of Ang II” value in assay [1] (WT mice, saline, TAT.protein 10 mg/kg i.p. once daily) is listed as “did induce cardiac hypertrophy”. Also, in assay [1] (setting [4]), the FS is on record as 55 ± 3.9* %, the LVEDD was 4.6 ± 0.1* mm, the LVEF is recorded as 82 ± 2.8* % and the LVESD is recorded as 2.4 ± 0.1* mm. In addition, in assay [1] (setting [4]), the PWD is 1.3 ± 0.1* mm. In addition, in assay [1] (setting [5]), the LVEDD is given as 4.5 ± 0.2^# mm, the LVEF is 83 ± 3.1^# %, the LVESD is reported as 2.4 ± 0.2^# mm and the PWD is recorded as 1.3 ± 0.2^# mm. Besides, the FS in assay [1] (setting [6]) was 52 ± 2.0^# %.
